Test results taken from publication PMC7094413.

Target: SARS-CoV nucleocapsid protein C-terminal domain (residues 248–365) (SARS-CoV TW1 strain)
Assay: NMR structure

SARS-CoV nucleocapsid protein C-terminal domain (residues 248–365) (domain or fragment)
stoichiometry N: 2
